Test results reported in the nanobody polyreactivity screen of Harvey et al. (2022).

Test: yeast display, Sf9 membrane polyspecificity reagent, FACS + sequencing; frameworks hold sequencing errors
In short: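 Sorting gates, low and high (top ~1%), were placed on anti-HA fluorescence to track expression and on streptavidin fluorescence to track reagent binding. A clone's polyreactivity label is taken from the gate it came out of. The reagent was 10% biotinylated, detergent-solubilized Sf9 membrane, applied for 1 hour at 4 °C to galactose-induced yeast display cells.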

Q: For “QVQLVESGGGLVQAGGSLRLSCAASGSIFFTYAMGWYRQEPGKERELVAAINSSGGSTYYADSVKGRFTISRDNAKNTVYLQMNSLKPEDTAVYYCAAYRYWSTPRYYWGQGTQVTVSS”, which “polyreactivity (PSR sort gate)” value is on record?
A: Its value is “high polyreactivity”.

Q: Which “polyreactivity (PSR sort gate)” value does the source give for “QVQLVESGGGLVQAGGSLRLSCAASGSIFFTYVMGWYRQAPGKERELVAAISSDDNTNYADSVKGRFTISRDNAKNTVYLQMNSLKPEDTAVYYCNADTTLYPYYDYGYYDYDYWGQGTQVTVSS” here?
A: Its value is “low polyreactivity”.

Q: With “QVQLVESGGGLVQAGGSLRLSCAASGSIFFVYAMGWYRQAPGKERELVAAITWSGGRTYYADSVKGRFTISRDNAKNTVYLQMNSLKPEDTAVYYCAARKYSDYFTPRYYYWGQGTQVTVSS” as the sequence, how does the “polyreactivity (PSR sort gate)” value read?
A: The value was “high polyreactivity”.

Q: For “QVQLVESGGGLVQAGGSLRLSCAASGSIFFWNTMGWYRQAPGKERELVAAISSGGSTYYADSVKGRFTISRDTAKNTVYLQMNSLRPEDTAVYYCAAVYSGLYSYYYWGQGTQVTVSS”, which “polyreactivity (PSR sort gate)” value is on record?
A: The value was “low polyreactivity”.

Q: Which “polyreactivity (PSR sort gate)” value does the source give for “QVQLVESGGGLVQAGGSLRLSCAASGSIFFWYAMGWYRQAPGKVRELVAAISYSGSRTYYSDSVKGRFTISRDNAKNTVYLQMNSLKPEDTAVDYFNVSLYSGAEYDYWGQGTQVTVSS” here?
A: The value was “high polyreactivity”.

Q: For “QVQLVESGGGLVQAGGSLRLSCAASGSIFFYAMGWYIQAPGKERQLVAAISWRGGSTYADSVKGRFTISRDNAKKTVYLQMKSLKPEDTAVYYCAKDWVRSGAVIDYDYWGQGTQVTVSS”, which “polyreactivity (PSR sort gate)” value is on record?
A: The value was “high polyreactivity”.

Q: With “QVQLVESGGGLVQAGGSLRLSCAASGSIFFYAMGWYRQAPGKERELVADITYTGGSKYADSVKGRFTISRDYAKNTVYLQMNSLKPEDTAVYYCAKLDGGLFDYWGQGTQVTVSS” as the sequence, how does the “polyreactivity (PSR sort gate)” value read?
A: The value was “low polyreactivity”.

Q: With “QVQLVESGGGLVQAGGSLRLSCAASGSIFFYNAMGWYRQAPGKERELVAAISRGGNTNYADSVKGRFTISRDNANNTVYLQMNSLKPEDTAVYYCNAESLSGAHGYWGQGTQVTVSS” as the sequence, how does the “polyreactivity (PSR sort gate)” value read?
A: The value was “low polyreactivity”.

Q: Which “polyreactivity (PSR sort gate)” value does the source give for “QVQLVESGGGLVQAGGSLRLSCAASGSIFFYYAMGWYRQAPGKERELVASISTDGSTYADSVKGRFTISRDNAKNTVSLQMNSLKPEDTAFYYCATRGAEAERFASYDFDYWGQGTQVTVSS” here?
A: The value was “low polyreactivity”.

Q: For “QVQLVESGGGLVQAGGSLRLSCAASGSIFFYYTMGWYRQAPGKEREMVAAISVGGSTYYADSVKGRFTISSDNAKNTVYLQMKSLKPEDTAVYYCNAVPAKGYVTVVRYYYWGLGTQVTVSS”, which “polyreactivity (PSR sort gate)” value is on record?
A: The value was “low polyreactivity”.

Q: With “QVQLVESGGGLVQAGGSLRLSCAASGSIFGANAMGWYRKAPGKERELVAAISTRGGRTYYADSVKGRFTISRDNAKNTVYLQMNSLKPEDTAVYYCATSGGRPYKYEYWGQGTQVTVSS” as the sequence, how does the “polyreactivity (PSR sort gate)” value read?
A: Its value is “high polyreactivity”.

Q: Which “polyreactivity (PSR sort gate)” value does the source give for “QVQLVESGGGLVQAGGSLRLSCAASGSIFGDNAMGWYRQAPGKERELVAAIDSDGSTNYADSVNGRFTISRDNAKNTVYLQMNSLKPEDTAVYYCAASEPYSKPYTYDYWGQGTQVTVSS” here?
A: Its value is “low polyreactivity”.

Q: Which “polyreactivity (PSR sort gate)” value does the source give for “QVQLVESGGGLVQAGGSLRLSCAASGSIFGDNAMGWYRQAPGKERELVAAITSSGGSTYYADSVKGRFTISRDNAKNSVYLQMNSLKPEDTAVYYCNADFGYGWYLRYDYWGLGTQVTVSS” here?
A: Its value is “high polyreactivity”.

Q: With “QVQLVESGGGLVQAGGSLRLSCAASGSIFGDYVMGWYRQAPGKERELVAAISGNGGRTYYADSVKGRFTISRDNAKNTVYLQMNSLKPEDTAVYYCAKVRSVTIGRDYWGQGTQVTVSS” as the sequence, how does the “polyreactivity (PSR sort gate)” value read?
A: Its value is “high polyreactivity”.

Q: With “QVQLVESGGGLVQAGGSLRLSCAASGSIFGDYVMGWYRQAPGNERELVAAINRGGSTYYADSVKGRFSISRDNAKNTVYLQMNSLTAEDTAVYFCAAGYPSWYYCYPYDSWGQGTQVTVSS” as the sequence, how does the “polyreactivity (PSR sort gate)” value read?
A: The value was “low polyreactivity”.

Q: With “QVQLVESGGGLVQAGGSLRLSCAASGSIFGENAMGWYRQAPGKERELVAAITWSGASTYYADSVKGRFTISRDNAKNTVYLQMNSLKPEDTAVYYCNADRYVRYSTFDYWGQGTQVTVSS” as the sequence, how does the “polyreactivity (PSR sort gate)” value read?
A: Its value is “high polyreactivity”.

Q: Which “polyreactivity (PSR sort gate)” value does the source give for “QVQLVESGGGLVQAGGSLRLSCAASGSIFGFNAMGWYRQAPGKERELVAAINGGGTTYYADSVKGRFTISRDNAKNTVYLQMNSLIPEDTAVYYCAATPNGYYYLGYDYWGQGTQVTVSS” here?
A: Its value is “low polyreactivity”.

Q: With “QVQLVESGGGLVQAGGSLRLSCAASGSIFGFNAMGWYRQAPGKERELVAAISSGSTYYADSVKGRFTISRDNAKNTVYLQKNSLKPEDTAVYYCAATTGYSWYGYWGQGPQVTVSS” as the sequence, how does the “polyreactivity (PSR sort gate)” value read?
A: Its value is “low polyreactivity”.

Q: Which “polyreactivity (PSR sort gate)” value does the source give for “QVQLVESGGGLVQAGGSLRLSCAASGSIFGFNAMGWYRQAPGKERELVASISSSGDSTYYADSVKGRFTISRDNAKNTVYLLMNSLKPEDTAVYYCATEGRTDYNREMEYWGQGTQVTVSS” here?
A: The value was “low polyreactivity”.

Q: With “QVQLVESGGGLVQAGGSLRLSCAASGSIFGFYAMGWYRQAPGKERELVAAIRYTGGSTYYADSVKGRFTISRDNAKNTVYLQMNSLKPEDTAVYYCNARTFRRYVSYSRTYVGYDYWGQGTQVTVSS” as the sequence, how does the “polyreactivity (PSR sort gate)” value read?
A: Its value is “high polyreactivity”.

Q: For “QVQLVESGGGLVQAGGSLRLSCAASGSIFGFYAMGWYRQAPGKERELVAAISDSGDSTYYADSVKGRFTISRDNAKNTVYLQMNSLKPEDTAVYYCATDGRSNYYWGDYWGQGTQVTVSS”, which “polyreactivity (PSR sort gate)” value is on record?
A: Its value is “low polyreactivity”.

Q: With “QVQLVESGGGLVQAGGSLRLSCAASGSIFGFYAMGWYRQAPWKERELVAAINSNSGSTYYADSVKGRFTISRDNAKNTVYLQMNSLKPEDTAVYYCAARSPYVTPQGFNYCGQGTQVTVSS” as the sequence, how does the “polyreactivity (PSR sort gate)” value read?
A: The value was “high polyreactivity”.

Q: With “QVQLVESGGGLVQAGGSLRLSCAASGSIFGFYMGWYRQAPGKERELVAAISGSGGNTYYADSVKGRFTISRDNAKNTVYLQMNSLKPEDTAVYYCAAVSRHRGWDRYYWGQGTQVTVSS” as the sequence, how does the “polyreactivity (PSR sort gate)” value read?
A: Its value is “high polyreactivity”.

Q: With “QVQLVESGGGLVQAGGSLRLSCAASGSIFGGNAMGWYRQAPGKERELVAAITTGDGSTYYADSVKGRFTISRDNAKNTVYLQMNSLKPEDTAVYYCAADIVHDRFDYWGQGTQVTVSS” as the sequence, how does the “polyreactivity (PSR sort gate)” value read?
A: The value was “low polyreactivity”.

Q: Which “polyreactivity (PSR sort gate)” value does the source give for “QVQLVESGGGLVQAGGSLRLSCAASGSIFGGNAMGWYRQAPGKERELVATITSAGSTYYADSVKGRFTISRDNAKNTVYLQMNSLKPEDTAVYYCAADPTYYWRYYPTRLYVEYDYWGQGTQVTVSS” here?
A: Its value is “low polyreactivity”.

Q: With “QVQLVESGGGLVQAGGSLRLSCAASGSIFGGNTMGWYRQAPGKERELVAAISWSGGRTYYADSVKGRFTISRDNAKNTVYLQMNSLKPEDTAVYYCAATFRGVLGWYHYEYWGQGTQVTVSS” as the sequence, how does the “polyreactivity (PSR sort gate)” value read?
A: The value was “high polyreactivity”.

Q: Which “polyreactivity (PSR sort gate)” value does the source give for “QVQLVESGGGLVQAGGSLRLSCAASGSIFGGYAMGWYRQAPGKERELVAAISSGGSTYYADSVKGRFTISRDNAKNTVYLQMNSLKPEDTAVYYCATSTYADRRNSYYYTRPRFGYWGQGTQVTVSS” here?
A: Its value is “high polyreactivity”.

Q: Which “polyreactivity (PSR sort gate)” value does the source give for “QVQLVESGGGLVQAGGSLRLSCAASGSIFGGYAMGWYRQAPGKERELVARIRVSGGRTYYADSVKGRFTISRDNAKNTVYLQMISLKPEDTAVYYCAVDRYWWLDGYDYWGQGTQVTVSS” here?
A: Its value is “high polyreactivity”.

Q: Which “polyreactivity (PSR sort gate)” value does the source give for “QVQLVESGGGLVQAGGSLRLSCAASGSIFGGYAMGWYRQAPGKERELVARITDRGGSTDYADSVKGRFTISRDNAKNTVYLQMNSLKPEDTAVYYCAKRGDRYEKRPRDYWGQGTQVTVSS” here?
A: Its value is “low polyreactivity”.

Q: For “QVQLVESGGGLVQAGGSLRLSCAASGSIFGGYAMGWYRQAPGKERELVAVISSGGSTNYADSVKGRFTISRDNAKNTVYLQMNSLKPEDTAVYYCAATVIYAYRGHFYQYDYWGQGTQVTVSS”, which “polyreactivity (PSR sort gate)” value is on record?
A: The value was “high polyreactivity”.
